The target of this data set is Zif268-HMGa1-mCherry fusion protein (Mus musculus? (Zif268) / Homo sapiens …). In words: SPR; about 140 nM; target immobilised on CM5 chip (Biacore). As for the experimental part:
Affinity of the fusion proteins prepared in Example 1 to a target nucleic acid nucleotide sequence was measured using a surface plasmon resonance (SPR) system (Biacore) to determine the equilibrium dissociation constant, Kd, for forming the fusion protein-target nucleic acid complex. After immobilization of the target nucleic acid (SEQ ID NO. 9) to a CM5 chip, the fusion proteins were loaded into the microfluidic chamber of the SPR.
(In general: In SPR one partner is held on a chip, and binding of the other changes the refractive index at the surface.)

Zif268-HMGa1-mCherry fusion protein (Mus musculus? (Zif268) / Homo sapiens …), sequence (chain, as listed by the source): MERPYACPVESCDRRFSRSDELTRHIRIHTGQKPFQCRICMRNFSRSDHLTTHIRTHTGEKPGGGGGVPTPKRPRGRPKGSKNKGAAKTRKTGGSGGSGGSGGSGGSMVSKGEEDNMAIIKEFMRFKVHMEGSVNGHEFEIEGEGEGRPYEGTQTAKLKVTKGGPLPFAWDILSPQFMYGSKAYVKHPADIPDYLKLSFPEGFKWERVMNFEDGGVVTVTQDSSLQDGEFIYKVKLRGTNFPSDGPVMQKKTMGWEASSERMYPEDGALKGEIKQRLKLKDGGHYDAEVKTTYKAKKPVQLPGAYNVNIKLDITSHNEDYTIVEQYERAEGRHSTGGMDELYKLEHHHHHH

B1: target nucleic acid (Zif268 target) (dsDNA)
DNA 1: GTGTGTGTGTGATCTGCGTGGGCGGTAAG
DNA 2: CTTACCGCCCACGCAGATCACACACACAC
B1: the Kd (commonly the free concentration of one partner at which half of the binding sites on the other are occupied at equilibrium, for simple one-to-one binding) worked out at 140 nM.

For the origin of these results see patent US20120164754, “KIT AND METHOD OF DETERMINING NUCLEOTIDE SEQUENCE OF TARGET NUCLEIC ACID” (SAMSUNG ELECTRONICS CO., LTD., published 2012).
